# Laboratory results: PMC7546529 (Nature microbiology, 2020)
# Target: the molecule itself
# Test: cryo-EM structure
protein,measurement,value
portal protein (BBRF1 gene-encoded portal complex) (natural protein) MFNMNVDESASGALGSSAIPVHPTPASVRLFEILQGKYAYVQGQTIYANLRNPGVFSRQVFTHLFKRAISHCTYDDVLHDWNKFEACIQKRWPSDDSCASRFRESTFESWSTTMKLTVRDLLTTNIYRVLHSRSVLSYERYVDWICATGMVPAVKKPITQELHSKIKSLRDRCVCRELGHERTIRSIGTELYEATKEIIESLNSTFIPQFTEVTIEYLPRSDEYVAYYCGRRIRLHVLFPPAIFAGTVTFDSPVQRLYQNIFMCYRTLEHAKICQLLNTAPLKAIVGHGGRDMYKDILAHLEQNSQRKDPKKELLNLLVKLSENKTISGVTDVVEEFITDASNNLVDRNRLFGQPGETAAQGLKKKVSNTVVKCLTDQINEQFDQINGLEKERELYLKKIRSMESQLQASLGPGGNNPAASAPAAVAAEAASVDILTGSTASAIEKLFNSPSASLGARVSGHNESILNSFVSQYIPPSREMTKDLTELWESELFNTFKLTPVVDNQGQRLYVRYSSDTISILLGPFTYLVAELSPVELVTDVYATLGIVEIIDELYRSSRLAIYIEDLGRKYCPASATGGDHGIRQAPSARGDTEPDHAKSKPARDPPPGAGS,stoichiometry N,12
